Data on six molecules can be found in patent US20220168440A1, “ANTIBODY-PYRROLOBENZODIAZEPINE DEPRIVATIVE CONJUGATE” (DAIICHI SANKYO COMPANY, LIMITED, priority 2019, published 2022).

For one assay, the target named is T1, human CLDN3 (human, UniProt O15551 1-220).
T1 construct: whole, on cells
T1 sequence (looked up): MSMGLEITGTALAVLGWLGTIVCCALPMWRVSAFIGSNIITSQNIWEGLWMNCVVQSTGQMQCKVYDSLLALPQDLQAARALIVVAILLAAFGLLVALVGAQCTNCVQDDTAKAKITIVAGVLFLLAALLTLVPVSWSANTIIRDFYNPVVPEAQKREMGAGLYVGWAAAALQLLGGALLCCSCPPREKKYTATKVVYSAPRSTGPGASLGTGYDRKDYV
Put plainly: flow cytometry on transiently transfected 293T cells. The protocol: (§1) Binding activity of the mouse anti-CLDN6 antibodies produced in Example 6 to human CLDN6 and its family molecules, CLDN3, CLDN4, and CLDN9, was evaluated by using a flow cytometry method. Human CLDN3/pCMV6-Entry, human CLDN4/pCMV6-Entry, human CLDN6/pCMV-Entry, human CLDN9/pCMV6-Entry, or pCMV6-Entry purchased from OriGene Technologies, Inc. was transiently transferred into 293T cells (Thermo Fisher Scientific, HCL4517) by using Lipofectamine 2000 (Thermo Fisher Scientific), and the cells were cultured under conditions of 37° C. and 5% CO₂ overnight, and then a cell suspension was prepared. […] The cells were washed twice with Dulbecco's phosphate buffered saline (Sigma-Aldrich Co. LLC) containing 5% fetal bovine serum (Hyclone) (hereinafter, referred to as 5% FBS-containing PBS), and FLUORESCEIN-CONJUGATED GOAT IGG FRACTION TO MOUSE IGG (WHOLE MOLECULE) (MP Biomedicals, Inc.) 500-fold diluted with 5% FBS-containing PBS was then added thereto, and the cells were suspended and left to stand at 4° C. for 1 hour. After washing twice with 5% FBS-containing PBS, detection was carried out by using a flow cytometer (FC500; Beckman Coulter, Inc.). Data analysis was carried out by using FlowJo (Tree Star, Inc.). […] In each graph in FIG. 40, the ordinate represents FITC fluorescence intensity indicating the amount of the binding antibody and the abscissa represents antibody concentrations.
(§2) The binding activity of the humanized anti-CLDN6 antibody produced in Example 10 to human CLDN6 and its family molecules, CLDN3, CLDN4, and CLDN9, was evaluated by using a flow cytometry method.
(In flow cytometry, cells or beads pass a laser one at a time.)

Another assay has as its target T2, human CLDN4 (human, UniProt O14493 1-209).
T2 construct: whole, on cells
T2 sequence (looked up): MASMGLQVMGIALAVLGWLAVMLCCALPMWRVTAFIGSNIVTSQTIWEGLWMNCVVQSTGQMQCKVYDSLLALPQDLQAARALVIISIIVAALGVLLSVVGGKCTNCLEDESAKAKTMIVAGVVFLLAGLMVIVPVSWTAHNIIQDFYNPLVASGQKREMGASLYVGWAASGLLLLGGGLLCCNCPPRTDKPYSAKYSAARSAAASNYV
The description is as above. The protocol:
as §1, §2

The target of a further assay is T3, human CLDN6 (human, UniProt P56747 1-220).
T3 construct: Four-transmembrane protein, NP_067018; It was also expressed on CHO-K1 cells by cDNA transfection; In the immunoprecipitation it was the endogenous protein from NTERA-2 cell lysate; also called hCLDN6; claudin-6
T3 sequence: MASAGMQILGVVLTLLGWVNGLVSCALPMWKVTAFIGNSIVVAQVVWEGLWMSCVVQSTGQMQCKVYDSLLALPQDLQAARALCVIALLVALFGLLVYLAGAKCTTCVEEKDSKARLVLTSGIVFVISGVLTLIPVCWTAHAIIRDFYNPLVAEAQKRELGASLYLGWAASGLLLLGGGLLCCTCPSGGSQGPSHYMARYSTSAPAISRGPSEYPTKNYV
Put plainly: flow cytometry (MFI) on transiently transfected 293T cells. The protocol:
(§3) The binding activity of the humanized anti-CLDN6 antibody produced in Example 10 to human CLDN6 and its family molecules, CLDN3, CLDN4, and CLDN9, was evaluated by using a flow cytometry method. […] The cells were washed with Dulbecco's phosphate buffered saline (Sigma-Aldrich Co. LLC) containing 5% fetal bovine serum (Hyclone) (hereinafter, referred to as 5% FBS-containing PBS), and FITC AffiniPureF (ab′)2 Fragment Goat Anti-Human IgG (H+L) (Jackson ImmunoResearch Laboratories Inc.) 150-fold diluted with 5% FBS-containing PBS was then added thereto, and the cells were suspended and left to stand at 4° C. for 30 minutes. After washing with 5% FBS-containing PBS, detection was carried out by using a flow cytometer (FC500; Beckman Coulter, Inc.). Data analysis was carried out by using FlowJo (Tree Star, Inc.), and mean fluorescence intensity (MFI) of FITC, which indicates the amount of the binding antibody, was calculated. […] In each graph in FIG. 42, the abscissa represents antibody concentrations and the ordinate represents MFI.

In a further assay the target is T4, human CLDN9 (human, UniProt O95484 1-217).
T4 construct: NP_066192; It was expressed on 293T cells transiently transfected with human CLDN9/pCMV6-Entry (OriGene); also called claudin-9
T4 sequence: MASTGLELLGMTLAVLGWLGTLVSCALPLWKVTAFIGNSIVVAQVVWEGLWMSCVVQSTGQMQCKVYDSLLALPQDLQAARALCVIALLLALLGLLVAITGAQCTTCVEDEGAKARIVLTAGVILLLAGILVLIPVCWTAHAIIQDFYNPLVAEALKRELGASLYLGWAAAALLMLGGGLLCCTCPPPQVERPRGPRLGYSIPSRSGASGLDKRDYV
Described as above. On the procedure: as §3

The target of a further assay is T5, human claudin-6 (Homo sapiens, UniProt P56747).
T5 construct: expressed in transfected cells; host or cells: CHO-K1 cells
T5 sequence (P56747 1-220): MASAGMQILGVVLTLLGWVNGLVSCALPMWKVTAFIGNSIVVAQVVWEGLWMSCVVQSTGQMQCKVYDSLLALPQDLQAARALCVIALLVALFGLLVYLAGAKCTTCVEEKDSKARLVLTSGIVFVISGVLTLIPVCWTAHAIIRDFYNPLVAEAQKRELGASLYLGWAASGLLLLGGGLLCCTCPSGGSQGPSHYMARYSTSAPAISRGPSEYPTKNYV
In words: FACS analysis of 218B1/218C7 antibodies on human claudin-6-expressing CHO-K1 cells. The format is binding. Conditions: forced expression by cDNA transfection. The protocol: Since the antigen for the 218B1 antibody and 218C7 antibody was estimated to be claudin-6 from the mass spectrometry, forced expression analysis by cDNA transfection was carried out.

In a further assay the test system is BxPC-3. In words: Internalization activity by Mab-ZAP (saporin-conjugated anti-mouse IgG), cell survival. The assay is classed as cell-based. Conditions: human CLDN6-negative pancreatic cancer cell line BxPC-3; antibody 1 nM, Mab-ZAP 0.5 nM; 5 days. On the procedure:
(§4) Internalization activity of the mouse anti-CLDN6 antibodies B1 and C7 was evaluated by using the anti-mouse IgG reagent, to which a toxin that inhibits protein synthesis (saporin) had been conjugated, Mab-ZAP (Advanced Targeting Systems). In this evaluation, Mab-ZAP is incorporated into cells in a manner depending on the internalization activity of a mouse anti-CLDN6 antibody, and saporin, which inhibits protein synthesis, is released in the cells to suppress cell growth.
(§5) JEG-3(ATCC HTB-36), a human choriocarcinoma cell line of human CLDN6-positive cells, NIH:OVCAR-3 (ATCC HTB-161), a human ovarian cancer cell line of human CLDN6-positive cells, or BxPC-3 (ATCC CRL-1687), a human pancreatic cancer cell line of human CLDN6-negative cells, was seeded in a 96-well cell culture microplate at 2×10^3 cells/well, and cultured under conditions of 37° C. and 5% CO2 overnight. On the next day, a mixed solution obtained by mixing each mouse anti-CLDN6 antibody or mouse IgG1 antibody (R&D Systems, Inc.) to a final concentration of 1 nM, with Mab-ZAP (final concentration: 0.5 nM) or AffiniPure Goat Anti-Mouse IgG, Fcγ Fragment Specific (Jackson ImmunoResearch Laboratories Inc.) (final concentration: 0.5 nM), without conjugated toxin, was added, and the cells were cultured under conditions of 37° C. and 5% CO2 for 5 days. The number of surviving cells was determined through quantification of ATP activity by using CellTiter-Glo Luminescent Cell Viability Assay (Promega Corporation).

For a further assay, the system named is JEG-3. Described as above. The assay is classed as cell-based. Conditions: human CLDN6-positive choriocarcinoma cell line JEG-3; antibody 1 nM, Mab-ZAP 0.5 nM; 5 days. The protocol: as §4, §5
In the next assay the test system is NIH:OVCAR-3. The assay is described as above. The assay is classed as cell-based. The settings on record: human CLDN6-positive ovarian cancer cell line NIH:OVCAR-3; antibody 1 nM, Mab-ZAP 0.5 nM; 5 days. The protocol:
as §4, §5

B1: humanized anti-CLDN6 antibody H1L3 (antibody, human IgG1, kappa, L234A L235A, V domains shown)
VH: QVQLVQSGAEVKKPGASVKVSCKASGYTFTEYTMHWVRQAPGQGLEWMGGVNPNSGDTSYAQKFQGRVTITADTSTSTAYMELSSLRSEDTAVYYCARPGGYDVGYYAMDYWGQGTLVTVSS
VL: DIQMTQSPSSLSASVGDRVTITCRASQDINNYLNWYQQKPGGAVKLLIYFTSRLHSGVPSRFSGSGSGTDYTLTISSLQPEDFATYYCQQGYPLPWTFGGGTKVEIKR
notes: hH1 + hL3, with human IgG1 LALA constant region and human kappa chain; also called H1L3 antibody
As for B1, the binding result with human CLDN3 is “no binding (tested: 100 nM)”; in the assay with human CLDN4, “no binding (tested: 100 nM)”; with human CLDN6, “binds”; with human CLDN9, “binds”.

B2: humanized anti-CLDN6 antibody H1L1 (antibody, human IgG1, kappa, L234A L235A, V domains shown)
VH: QVQLVQSGAEVKKPGASVKVSCKASGYTFTEYTMHWVRQAPGQGLEWMGGVNPNSGDTSYAQKFQGRVTITADTSTSTAYMELSSLRSEDTAVYYCARPGGYDVGYYAMDYWGQGTLVTVSS
VL: DIQMTQSPSSLSASVGDRVTITCRASQDINNYLNWYQQKPGKAPKLLIYFTSRLHSGVPSRFSGSGSGTDYTLTISSLQPEDFATYYCQQGYPLPWTFGQGTKVEIKR
notes: hH1 + hL1, with human IgG1 LALA constant region and human kappa chain; also called H1L1 antibody
Turning to B2, the binding result with human CLDN3 is “no binding (tested: 100 nM)”; in the assay with human CLDN4 it was “no binding (tested: 100 nM)”; in the assay with human CLDN6 it was “binds”; with human CLDN9 it was “binds”.

B3: humanized anti-CLDN6 antibody H3L3 (antibody, human IgG1, kappa, L234A L235A, V domains shown)
VH: EVQLVQSGAEVKKPGASVKVSCKTSGYTFTEYTMHWVRQAPGQGLEWMGGVNPNSGDTSYAQKFQGRVTLTVDKSTSTAYMELSSLRSEDTAVYYCARPGGYDVGYYAMDYWGQGTLVTVSS
VL: DIQMTQSPSSLSASVGDRVTITCRASQDINNYLNWYQQKPGGAVKLLIYFTSRLHSGVPSRFSGSGSGTDYTLTISSLQPEDFATYYCQQGYPLPWTFGGGTKVEIKR
notes: hH3 + hL3, with human IgG1 LALA constant region and human kappa chain; also called H3L3 antibody
For the molecule B3, the binding result with human CLDN3 is listed as “no binding (tested: 100 nM)”; with human CLDN4, “no binding (tested: 100 nM)”; with human CLDN6, “binds”; with human CLDN9, “binds”.

B4: humanized anti-CLDN6 antibody H2L2 (antibody, human IgG1, kappa, L234A L235A, V domains shown)
VH: EVQLVQSGAEVKKPGASVKVSCKTSGYTFTEYTMHWVRQAPGKSLEWMGGVNPNSGDTSYAQKFQGRVTITADTSTSTAYMELSSLRSEDTAVYYCARPGGYDVGYYAMDYWGQGTLVTVSS
VL: DIQMTQSPSSLSASVGDRVTITCRASQDINNYLNWYQQKPGKAVKLLIYFTSRLHSGVPSRFSGSGSGTHYTLTISSLQPEDFATYYCQQGYPLPWTFGQGTKVEIKR
notes: hH2 + hL2, with human IgG1 LALA constant region and human kappa chain; also called H2L2 antibody
With B4, the binding result with human CLDN3 is given as “no binding (tested: 100 nM)”; in the assay with human CLDN4, “no binding (tested: 100 nM)”; with human CLDN6, “binds”; with human CLDN9 it was “binds”.

B5: humanized anti-CLDN6 antibody H2L4 (antibody, human IgG1, kappa, L234A L235A, V domains shown)
VH: EVQLVQSGAEVKKPGASVKVSCKTSGYTFTEYTMHWVRQAPGKSLEWMGGVNPNSGDTSYAQKFQGRVTITADTSTSTAYMELSSLRSEDTAVYYCARPGGYDVGYYAMDYWGQGTLVTVSS
VL: DIQMTQSPSSLSASVGDRVTITCRASQDINNYLNWYQQKPGGAVKLLIYFTSRLHSGVPSRFSGSGSGTDYTLTISSLQPEDFATYYCQQGNTLPWTFGGGTKVEIKR
notes: also called H2L4 antibody
Take B5: the binding result with human CLDN3 is on record as “no binding (tested: 100 nM)”; in the assay with human CLDN4, “no binding (tested: 100 nM)”; with human CLDN6 it was “binds”; with human CLDN9, “binds”.

B6: B1: mouse anti-CLDN6 antibody; heavy/light chain variable regions SEQ ID NO: 21 and 19 (antibody, listed as Mus musculus, V domains shown)
VH: EVQLQQSGPELVKPGASVKISCKTSGYTFTEYTMHWVQQSHGKSLEWIGGVNPNSGDTSYNQKFKGKATLTVDKSSSTAYMELRSLTSEDSAVYYCARPGGYDVGYYAMDYWGQGTSVTVSS
VL: DIQMTQTASSLSASLGDRVTISCRASQDINNYLNWYQQKPDGTVKLLIYFTSRLHSGVPSRFSGSGSGTHYSLTITNLEQEDIATYFCQQGYPLPWTFGGGTKLEIK
modifications: amino acid sequence of variable region of B1 antibody heavy chain; amino acid sequence of variable region of B1 antibody light chain
Regarding B6, in the assay with human claudin-6, the “FACS reaction for human claudin-6-expressing CHO-K1 cells” value is “strong positive reaction”. For the same molecule, the “cell growth-suppressing effect (relative survival rate) with Mab-ZAP” value in the assay with BxPC-3 is given as “no cell growth-suppressing effect”; in the assay with JEG-3, “cell growth-suppressing effect”; in the assay on NIH:OVCAR-3 it was “cell growth-suppressing effect”.
